Test system: MS2 coat protein
Assay: apparent KD of MS2 coat protein; designed switch direction (-1 OFF switch, 1 ON switch): -1; higher = weaker reporter binding
Outline: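 RNA switches sharing common flanks were transcribed by stalled E. coli RNA polymerase on Illumina chips. A doubling series of SNAP-549-labelled MS2 coat protein, from 0.7 or 1.5 nM to 3 µM, was applied in Tris-HCl pH 7.5 buffer with KCl, MgCl2, BSA, DTT, tRNA and Tween-20. Each step lasted 0.8–1.5 h at the bottom of the series and 10–20 min at the top. Normalised cluster fluorescence was curve-fitted, giving apparent KD as the per-design median over clusters.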

[1] = Eterna round: R95, input ligand: FMN 200 uM
[2] = Eterna round: R95, input ligand: microRNA oligo, concentration not stated
[3] = Eterna round: R95, input ligand: none
[4] = input ligand: microRNA oligo, concentration not stated

| Sequence | apparent KD of MS2 coat protein (input ligand: FMN 200 uM) | apparent KD of MS2 coat protein (input ligand: none) | apparent KD of MS2 coat protein [1] | apparent KD of MS2 coat protein [2] | apparent KD of MS2 coat protein [3] | apparent KD of MS2 coat protein [4] |
| --- | --- | --- | --- | --- | --- | --- |
| GGGUGCAGGCUAAGAUCCUACAUGAGGAUCACCCAUGUGGUCCGGUGACGUGAGUCACCGGACUUAGCUCGUCUUGU [salish99_S_TOV1_R5_006] (Eterna round: R97, puzzle: Sensor, turn-off variant 1) | 133 nM | 142 nM |  |  |  |  |
| GGGUGCAGGCUGGGAUCCUACAUGAGGAUCACCCAUGUGGUCCGGUGACGUGAGUCACCGGACUUAGCUCGUCUUGU [salish99_S_TOV1_R5_008] (Eterna round: R97, puzzle: Sensor, turn-off variant 1) | 569 nM | 865 nM |  |  |  |  |
| GGUACUAACACGAGAGUGUUAGUACUAUAAGCUUGUGUUACAUGAGGAUCACCCAUGUCCUCAUAAGCUCGUCUUGU [Mat - Sensor v3 - Turn-off var 2 - D88] (puzzle: Sensor v3, turn-off variant 2) |  |  | 48.2 nM | 54.8 nM | 46.8 nM |  |
| GGUACUAACACGAGAGUGUUAGUACUAUAAGCUUGUGUUACAUGAGGAUCACCCAUGUCCUCAUAGGCUCGUCUUAG [Mat - Sensor v3 - Turn-off var 2 - D84] (puzzle: Sensor v3, turn-off variant 2) |  |  | 93.7 nM | 34.8 nM | 91.9 nM |  |
| GGUACUCAAAGAGUACCAAUACGAACAUGAGGAUCACCCAUGUAGGAUAUGCUACUCAAAGAGUAGCAGAAGGACGUGUGCCUU [Far Half Aptamer v4] (Eterna round: R96, puzzle: Exclusion NG 3) |  |  |  |  |  | 15.6 nM |
| GGUAGAGUGGUAGGAUAUCCGGCUGUUUCAGUCGGAGAAGGACCACAGUCACUGGGUCCAAAUAUGGGUGACCAUGUAUCUACC [pwkr exNG1 F6.6] (Eterna round: R96, puzzle: Exclusion NG 1) | 984 nM | 371 nM |  |  |  | 337 nM |
| GGUCAAGAACAGAUCCGCGCUGUCCUUGACCGCUCAUUUACAUGAGGAUCACCCAUGUUUUUUGCUUGUCUUGUUAC [Tixegeis] (puzzle: Sensor v3, turn-off variant 2) |  |  | 17.4 nM | 96.7 nM | 16.5 nM |  |
| GGUCAAGAGCAGAUCCGCGCUGCCAUUGACCGCUCAUUUACAUGAGGAUCACCCAUGUUUUUUGCUCGUCUUACUAC [Inedsoinin] (puzzle: Sensor v3, turn-off variant 2) |  |  | 18.2 nM | 57.9 nM | 20.3 nM |  |
| GGUCAGCUAGGAUAUACAUGAGGAUCACCCAUGUACUGACCCAUGCGGGAGCCUGCAUGUAGAAGGAGCAAUAU [Onzatiqula] (Eterna round: R97, puzzle: Exclusion 3) | 37 nM | 55.3 nM |  |  |  |  |
| GGUCAUCAAGUCAGGAUAUCGUCUGAUCAAUCAGGCGAGAAGGGACAUGAGGAUCACCCAUGUCGACUCAUCAG [Ex4 #7] (Eterna round: R97, puzzle: Brourd's mod of Exclusion 4) | 85.3 nM | 19.4 nM |  |  |  |  |
| GGUCGGCGAGGAUAUACAUGAGGAUCACCCAUGUGAUAGAGUGCACGAAAACGUGUACGUAGAAGGCGCUGACG [Mat - Exclusion 3 - Mod of JL D96] (puzzle: Exclusion 3) |  |  | 29.5 nM | 11 nM | 9.24 nM |  |
| GGUCUACAUGAGGAUCACCCAUGUAAGGAUAUCUACAUUGAAGCUUCGGCUUCAAUGUAGAGAAGGUGCAUAAU [E1/11-B1] (Eterna round: R97, puzzle: Exclusion 1) | 37.3 nM | 31.4 nM |  |  |  |  |
| GGUGAGCUAGGAUAUGCUUUGGGAAAGCAUUCCUUCGAUAAACUUGAGGAUCACCCAAGUAGAAGGAGCUUGCC [salish99_ex2_r4_019] (Eterna round: R97, puzzle: Exclusion 2) | 18.7 nM | 11.9 nM |  |  |  |  |
| GGUGCGUAUGUGAGGAUAUGCUGGUCCUUGGAUCGGCAGAAGGCACAUGAGGAUCACCCAUGUGGUGUCGUACU [salish99_Bmod_ex4_082] (puzzle: Brourd's mod of Exclusion 4) |  |  |  | 173 nM |  |  |
| GGUGCGUAUGUGAGGAUAUGCUGGUCCUUGGUUCAGCAGAAGGCACAUGAGGAUCACCCAUGUGGUGUCGUACC [salish99_Bmod_Ex4_025] (puzzle: Brourd's mod of Exclusion 4) |  |  |  | 188 nM |  |  |
| GGUGCGUAUGUUAGGAUAUGCUGGUCCUUGGAUCGGCAGAAGGUACAUGAGGAUCACCCAUGUGGUGUCGUUCC [salish99_Bmod_ex4_103] (puzzle: Brourd's mod of Exclusion 4) |  |  |  | 50.8 nM |  |  |

| Sequence | apparent KD of MS2 coat protein (input ligand: FMN 200 uM) | apparent KD of MS2 coat protein (input ligand: none) | apparent KD of MS2 coat protein [1] | apparent KD of MS2 coat protein [2] | apparent KD of MS2 coat protein [3] | apparent KD of MS2 coat protein [4] |
| --- | --- | --- | --- | --- | --- | --- |
| GGUGCGUUUGUGAGGAUAUGCUGGUCCUUGGAUCAGCAGAAGGCACAUGAGGAUCACCCAUGUGGUGUCGUACC [salish99_Bmod_Ex4_030] (puzzle: Brourd's mod of Exclusion 4) |  |  |  | 273 nM |  |  |
| GGUGCUGGCGCGUCGGUGUUGGUGCAAUAAGCUUGUGAAACAUGAGGAUCACCCAUGUCCUCAUAAGCUCGUCUUGU [salish99_TOv2_r2_087] (puzzle: Sensor v3, turn-off variant 2) |  |  | 14.4 nM | 283 nM | 12.8 nM |  |
| GGUGCUGGCGCGUCGGUGUUGGUGCAAUAAGCUUGUGAAACAUGAGGAUCACCCAUGUCCUCAUAGGCUCGUCUUGU [salish99_TOv2_r2_088] (puzzle: Sensor v3, turn-off variant 2) |  |  | 16.4 nM | 544 nM | 14.4 nM |  |
| GGUGGACAUGAGGAUCACCCAUGUGAGGAUAUCGGCCGGUGCGUGGUGGCUGGCGUCUCGAGAAGGCACAUAGU [Exclusion 1 V68] (puzzle: Exclusion 1) |  |  |  | 74.9 nM |  |  |
| GGUGGGCUAGGAUAUGCUUUGGGCAAGCAUUCCUUCGAUAAACUUGAGGAUCACCCAAGUAGAAGGAGCUUGCC [salish99_ex2_r4_026] (Eterna round: R97, puzzle: Exclusion 2) | 11.5 nM | 10.6 nM |  |  |  |  |
| GGUGUGAGGCAGGAUAUGCAAUAUGUAAGUAAUGCAGAAGGGUCUACAUGAGGAUCACCCAUGUGUGCGGUAGA [Ex6 #3] (Eterna round: R97, puzzle: Exclusion 6) | 251 nM | 140 nM |  |  |  |  |
| GGUUAACAUGAGGAUCACCCAUGUGAGGAUAUGUUCAGGAUGAUAAAUAGAAGAGAUAAUAGAAGGCACUUUGG [Bubbles5] (Eterna round: R97, puzzle: Exclusion 1) | 57.6 nM | 39.9 nM |  |  |  |  |
| GGUUGACAUGAGGAUCACCCAUGUGAGGAUAUGCGAGAGAAAAAAGUGAGGAAGAAAAGUAGAAGGCGCUGACG [salish99-ex1_r3_001] (puzzle: Exclusion 1) |  |  | 59.9 nM | 49 nM | 57.1 nM |  |
| GGUUGACAUGAGGAUCACCCAUGUGAGGAUAUGCGAGAGAAAAAAGUGAGGAAGGAAUGCAGAAGGCGCUGUCG [salish99-ex1_r3_018] (puzzle: Exclusion 1) |  |  | 43.3 nM | 54.3 nM | 57.7 nM |  |
| GGUUGGCGAGGAUAUACAUGAGGAUCACCCAUGUGAGAGAAAAAAGUGAGGAAGAAAAGUAGAAGGCGCUGACC [salish99_ex3_r3_048] (puzzle: Exclusion 3) |  |  | 256 nM | 44.6 nM | 53.9 nM |  |
| GGUUGGCGAGGAUAUACAUGAGGAUCACCCAUGUGAGAGAAAAAAGUGAGGAAGAAAAGUAGAAGGCGUUGACG [salish99_ex3_r3_052] (puzzle: Exclusion 3) |  |  | 66.2 nM | 48.3 nM | 42.8 nM |  |
| GGUUGGCGAGGAUAUACAUGAGGAUCACCCAUGUGGUCCUGUAAAAAAAAAAACCUUUGUAGAAGGCGCGGGUC [salish99_ex3_r4_034] (Eterna round: R97, puzzle: Exclusion 3) | 211 nM | 233 nM |  |  |  |  |
| GGUUGUUUUUUCCUUUCUUACAUGAGGAUCACCCAUGUUUCUUGUCGUGCUCGCGUUGCUCGUCUGUCUGUCUGUUG [salish99_TOv1_r3_074] (puzzle: Sensor v3, turn-off variant 1) |  |  | 49.9 nM | 36.6 nM | 55.6 nM |  |
| GGUUUCGUAGGAUAUCAUCGAGUAAACAUGAGGAUCACCCAUGUGAGGUCGGCUUGCUCUUGAGAAGGAUGAAUGG [EX5 B.13] (Eterna round: R97, puzzle: Exclusion 5) | 40.1 nM | 34 nM |  |  |  |  |
| GUAAAGGUAGGAUAUACGAAGAAAAAGGGUAGAAUAAUAACACAUGAGGAUCACCCAUGUAGAAGGACCAAAGG [Mat - Exclusion 2 - Mod of my Tesla design - D8] (puzzle: Exclusion 2) |  |  | 49.8 nM | 26.4 nM | 23.8 nM |  |

Source: the supplement of paper PMC9170038
